# Measurements taken from IntAct's records for PubMed 11779503.
# B1: Mothers against decapentaplegic homolog 4 (Homo sapiens), Q13485 (parent)
# chain: MDNMSITNTPTSNDACLSIVHSLMCHRQGGESETFAKRAIESLVKKLKEKKDELDSLITAITTNGAHPSKCVTIQRTLDGRLQVAGRKGFPHVIYARLWRWPDLHKNELKHVKYCQYAFDLKCDSVCVNPYHYERVVSPGIDLSGLTLQSNAPSSMMVKDEYVHDFEGQPSLSTEGHSIQTIQHPPSNRASTETYSTPALLAPSESNATSTANFPNIPVASTSQPASILGGSHSEGLLQIASGPQPGQQQNGFTGQPATYHHNSTTTWTGSRTAPYTPNLPHHQNGHLQHHPPMPPHPGHYWPVHNELAFQPPISNHPAPEYWCSIAYFEMDVQVGETFKVPSSCPIVTVDGYVDPSGGDRFCLGQLSNVHRTEAIERARLHIGKGVQLECKGEGDVWVRCLSDHAVFVQSYYLDREAGRAPGDAVHKIYPSAYIKVFDLRQCHRQMQQQAATAQAAAAAQAAAVAGNIPGPGSVGGIAPAISLSAAAGIGVDDLRRLCILRMSFVKGWGPDYPRQSIKETPCWIEIHLHRALQLLDEVLHTMPIADPQPLD
# B2: Mothers against decapentaplegic homolog 2 (Homo sapiens), Q15796 (parent)
# chain: MSSILPFTPPVVKRLLGWKKSAGGSGGAGGGEQNGQEEKWCEKAVKSLVKKLKKTGRLDELEKAITTQNCNTKCVTIPSTCSEIWGLSTPNTIDQWDTTGLYSFSEQTRSLDGRLQVSHRKGLPHVIYCRLWRWPDLHSHHELKAIENCEYAFNLKKDEVCVNPYHYQRVETPVLPPVLVPRHTEILTELPPLDDYTHSIPENTNFPAGIEPQSNYIPETPPPGYISEDGETSDQQLNQSMDTGSPAELSPTTLSPVNHSLDLQPVTYSEPAFWCSIAYYELNQRVGETFHASQPSLTVDGFTDPSNSERFCLGLLSNVNRNATVEMTRRHIGRGVRLYYIGGEVFAECLSDSAIFVQSPNCNQRYGWHPATVCKIPPGCNLKIFNNQEFAALLAQSVNQGFEAVYQLTRMCTIRMSFVKGWGAEYRRQTVTSTPCWIELHLNGPLQWLDKVLTQMGSPSVRCSSMS
# Variants of: B1
# Conditions: with smad2_human SMAD2, Q15796
row,Variant,effect of a mutation on the interaction
1,D351H,disrupting interaction strength
2,R361H,disrupting interaction strength
3,K507A,decreasing interaction strength
4,K428A,decreasing interaction strength
5,Y513A,with no effect
6,D493H,with no effect
7,D537H,with no effect

# Now from value to variant:
row,effect of a mutation on the interaction,Variant
1,decreasing interaction strength,R515A
2,with no effect,R441P
3,with no effect,V370D
4,with no effect,R420H

# Variants of: B2
# Conditions: with smad4_human SMAD4, Q13485
row,Variant,effect of a mutation on the interaction
1,Y406H,with no effect
2,R310H,decreasing interaction strength
3,R310H;K375A,with no effect
4,R428A,with no effect
5,K375H;K420A,with no effect
6,V319D,with no effect
7,Y426A,with no effect
8,R310H;K420A,with no effect
9,W368H,with no effect
10,D450H,disrupting interaction strength
11,D300H;K420A,with no effect

# Results, then the variant that gave them:
row,effect of a mutation on the interaction,Variant
1,with no effect,K375A
2,with no effect,K420A
3,with no effect,N387P
4,with no effect,D300H;K375A
5,decreasing interaction strength,D300H
6,with no effect,D300H;R310H
